According to patent publication US20210388087A1:
Changes are numbered by the printed parent chain. Names may count otherwise.

B1: H183/L072 VL P95A (antibody, name in Kabat numbering, V domains shown)
VH: QVQLVESGGGLVQPGRSLRLSCAASGFTFSNAWMHWVRQAPGKGLEWVAQIKDKGNAYAAYYAPSVKGRFTISRDDSKNSIYLQMNSLKTEDTAVYYCHYVHYASASTVLPAFGVDAWGQGTTVTVSS
VL: DIVMTQSPLSLPVTPGEPASISCQASQELVHMNRNTYLHWYQQKPGQAPRLLIYKVSNRFPGVPDRFSGSGSGTDFTLKISRVEAEDVGVYYCAQGTSVAFTFGQGTKLEIK
B2: H183/L072 VL G91I (antibody, name in Kabat numbering, V domains shown)
VH: B1 VH
VL: B1 VL with G96I, A100P
B3: H183/L072 VL Q90V (antibody, name in Kabat numbering, V domains shown)
VH: B1 VH
VL: B1 VL with Q95V, A100P
B4: H183/L072 VL T92I (antibody, name in Kabat numbering, V domains shown)
VH: B1 VH
VL: B1 VL with T97I, A100P
B5: H183/L072 VL Q90N (antibody, name in Kabat numbering, V domains shown)
VH: B1 VH
VL: B1 VL with Q95N, A100P
B6: H183/L072 VL T97P (antibody, name in Kabat numbering, V domains shown)
VH: B1 VH
VL: B1 VL with A100P, T102P
B7: H183/L072 VL K50I (antibody, name in Kabat numbering, V domains shown)
VH: B1 VH
VL: B1 VL with K55I, A100P
B8: H183/L072 VL F96M (antibody, name in Kabat numbering, V domains shown)
VH: B1 VH
VL: B1 VL with A100P, F101M
B9: H183/L072 VL F96L (antibody, name in Kabat numbering, V domains shown)
VH: B1 VH
VL: B1 VL with A100P, F101L
B10: H183/L072 VL K50V (antibody, name in Kabat numbering, V domains shown)
VH: B1 VH
VL: B1 VL with K55V, A100P
B11: H183/L072 VL A89L (antibody, name in Kabat numbering, V domains shown)
VH: B1 VH
VL: B1 VL with A94L, A100P
B12: H183/L072 VL F96I (antibody, name in Kabat numbering, V domains shown)
VH: B1 VH
VL: B1 VL with A100P, F101I
B13: H183/L072 VL G91L (antibody, name in Kabat numbering, V domains shown)
VH: B1 VH
VL: B1 VL with G96L, A100P
B14: H183/L072 VL P95N (antibody, name in Kabat numbering, V domains shown)
VH: B1 VH
VL: B1 VL with A100N
B15: H183/L072 VL Q90M (antibody, name in Kabat numbering, V domains shown)
VH: B1 VH
VL: B1 VL with Q95M, A100P
B16: H183/L072 VL A89P (antibody, name in Kabat numbering, V domains shown)
VH: B1 VH
VL: B1 VL with A94P, A100P
B17: H183/L072 VL K50L (antibody, name in Kabat numbering, V domains shown)
VH: B1 VH
VL: B1 VL with K55L, A100P
B18: H183/L072 VL K50M (antibody, name in Kabat numbering, V domains shown)
VH: B1 VH
VL: B1 VL with K55M, A100P
B19: H183/L072 VL K50P (antibody, name in Kabat numbering, V domains shown)
VH: B1 VH
VL: B1 VL with K55P, A100P
B20: H183/L072 VL G91M (antibody, name in Kabat numbering, V domains shown)
VH: B1 VH
VL: B1 VL with G96M, A100P
B21: H183/L072 VL F96A (antibody, name in Kabat numbering, V domains shown)
VH: B1 VH
VL: B1 VL with A100P, F101A
B22: H183/L072 VL V51P (antibody, name in Kabat numbering, V domains shown)
VH: B1 VH
VL: B1 VL with V56P, A100P
B23: H183/L072 VL G91N (antibody, name in Kabat numbering, V domains shown)
VH: B1 VH
VL: B1 VL with G96N, A100P
B24: H183/L072 VL G91P (antibody, name in Kabat numbering, V domains shown)
VH: B1 VH
VL: B1 VL with G96P, A100P
B25: H183/L072 VL Q90L (antibody, name in Kabat numbering, V domains shown)
VH: B1 VH
VL: B1 VL with Q95L, A100P
B26: H183/L072 VL Q90G (antibody, name in Kabat numbering, V domains shown)
VH: B1 VH
VL: B1 VL with Q95G, A100P
B27: H183/L072 VL N53I (antibody, name in Kabat numbering, V domains shown)
VH: B1 VH
VL: B1 VL with N58I, A100P
B28: H183/L072 VL Q90P (antibody, name in Kabat numbering, V domains shown)
VH: B1 VH
VL: B1 VL with Q95P, A100P
B29: H183/L072 VL A89N (antibody, name in Kabat numbering, V domains shown)
VH: B1 VH
VL: B1 VL with A94N, A100P
B30: H183/L072 VL P95G (antibody, name in Kabat numbering, V domains shown)
VH: B1 VH
VL: B1 VL with A100G
B31: H183/L072 VL P95V (antibody, name in Kabat numbering, V domains shown)
VH: B1 VH
VL: B1 VL with A100V
B32: H183/L072 VL F96P (antibody, name in Kabat numbering, V domains shown)
VH: B1 VH
VL: B1 VL with A100P, F101P
B33: H183/L072 VL F96G (antibody, name in Kabat numbering, V domains shown)
VH: B1 VH
VL: B1 VL with A100P, F101G
B34: H183/L072 VL A89I (antibody, name in Kabat numbering, V domains shown)
VH: B1 VH
VL: B1 VL with A94I, A100P
B35: H183/L072 VL K50N (antibody, name in Kabat numbering, V domains shown)
VH: B1 VH
VL: B1 VL with K55N, A100P
B36: H183/L072 VL G91V (antibody, name in Kabat numbering, V domains shown)
VH: B1 VH
VL: B1 VL with G96V, A100P
B37: H183/L072 VL S52P (antibody, name in Kabat numbering, V domains shown)
VH: B1 VH
VL: B1 VL with S57P, A100P
B38: H183/L072 VL K50G (antibody, name in Kabat numbering, V domains shown)
VH: B1 VH
VL: B1 VL with K55G, A100P
B39: H183/L072 VL P95L (antibody, name in Kabat numbering, V domains shown)
VH: B1 VH
VL: B1 VL with A100L
B40: H183/L072 VL Q90I (antibody, name in Kabat numbering, V domains shown)
VH: B1 VH
VL: B1 VL with Q95I, A100P
B41: H183/L072 VL P95I (antibody, name in Kabat numbering, V domains shown)
VH: B1 VH
VL: B1 VL with A100I
B42: H183/L072 VL V51N (antibody, name in Kabat numbering, V domains shown)
VH: B1 VH
VL: B1 VL with V56N, A100P
B43: H183/L072 VL P95M (antibody, name in Kabat numbering, V domains shown)
VH: B1 VH
VL: B1 VL with A100M
B44: H183/L072 VL F96V (antibody, name in Kabat numbering, V domains shown)
VH: B1 VH
VL: B1 VL with A100P, F101V
B45: H183/L072 VL V94G (antibody, name in Kabat numbering, V domains shown)
VH: B1 VH
VL: B1 VL with V99G, A100P
B46: H183/L072 VL S93P (antibody, name in Kabat numbering, V domains shown)
VH: B1 VH
VL: B1 VL with S98P, A100P
B47: H183/L072 VL T92P (antibody, name in Kabat numbering, V domains shown)
VH: B1 VH
VL: B1 VL with T97P, A100P

Target: Human CD3eg linker (human)
Test: SPR; fold vs parent H183/L072

Sequence of Human CD3eg linker (human) (chain, as listed by the source limits assumed): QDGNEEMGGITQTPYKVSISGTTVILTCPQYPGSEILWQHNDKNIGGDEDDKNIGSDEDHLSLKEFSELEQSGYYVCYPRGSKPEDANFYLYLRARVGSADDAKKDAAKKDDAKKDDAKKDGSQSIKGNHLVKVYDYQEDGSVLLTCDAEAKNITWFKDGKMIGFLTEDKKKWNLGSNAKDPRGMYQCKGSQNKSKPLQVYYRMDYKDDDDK

fold change of affinity	Binder
0 fold	B1
0 fold	B2
0 fold	B3
0 fold	B4
0 fold	B5
0 fold	B6
0 fold	B7
0 fold	B8
0 fold	B9
0 fold	B10
0 fold	B11
0 fold	B12
0 fold	B13
0 fold	B14
0 fold	B15
0 fold	B16
0 fold	B17
0 fold	B18
0 fold	B19
0 fold	B20
0 fold	B21
0 fold	B22
0 fold	B23
0 fold	B24

fold change of affinity	Binder
0 fold	B25
0 fold	B26
0 fold	B27
0 fold	B28
0 fold	B29
0 fold	B30
0 fold	B31
0 fold	B32
0 fold	B33
0 fold	B34
0 fold	B35
0 fold	B36
0 fold	B37
0 fold	B38
0 fold	B39
0 fold	B40
0 fold	B41
0 fold	B42
0 fold	B43
0 fold	B44
0 fold	B45
0 fold	B46
0 fold	B47
